In publication PMC8216847:

Biological target: SARS-CoV-1 S-2P (SARS-CoV-1)

In the case of CV3-25 (antibody), the IC50 of neutralisation of SARS-CoV-1 pseudovirus is reported as 2.1 µg/mL.
